Test results reported in publication PMC4161306, “Regulation of Arabidopsis Flowering by the Histone Mark Readers MRG1/2 via Interaction with CONSTANS to Modulate FT Expression” (PLoS Genetics, 2014).

Molecular target: MRG2 chromodomain (residues 41-123) (Arabidopsis thaliana) (UniProt Q4V3E2)
Assay: ITC; 25 C, MicroCal iTC200; 50 mM Tris pH 8.0, 100 mM NaCl; 0.2-0.4 mM protein in the cell, 2-4 mM peptide injected in 2 ul aliquots (20 injections); one-site model

Chain of MRG2 chromodomain (residues 41-123) (Arabidopsis thaliana) (Q4V3E2 41-123): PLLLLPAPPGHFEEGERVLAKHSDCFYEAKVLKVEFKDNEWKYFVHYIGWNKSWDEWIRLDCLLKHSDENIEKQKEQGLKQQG

**Q.** With H3K36me3 peptide (residues 31-41) as the substance, how does the Kd read?
**A.** 690 µM

**Q.** Which Kd does the source give for H3K4me3 peptide (residues 1-9) here?
**A.** 800 µM
